This is an account of results in patent publication US20030039658.

In data set [1] the target is FLAG-tagged DSIF p160 (FT-DSIFp160) (UniProt O00267).
Data set [2] addresses RPB1, the largest (220 kDa) subunit of Pol II, within purified Pol II (UniProt P24928).
Data set [3] concerns the target rGST-CTD, recombinant glutathione-S-transferase fusion protein containing a portion of the CTD of RPB1 of Pol II (UniProt P24928).

Cyclin T1, sequence (chain, as listed by the source): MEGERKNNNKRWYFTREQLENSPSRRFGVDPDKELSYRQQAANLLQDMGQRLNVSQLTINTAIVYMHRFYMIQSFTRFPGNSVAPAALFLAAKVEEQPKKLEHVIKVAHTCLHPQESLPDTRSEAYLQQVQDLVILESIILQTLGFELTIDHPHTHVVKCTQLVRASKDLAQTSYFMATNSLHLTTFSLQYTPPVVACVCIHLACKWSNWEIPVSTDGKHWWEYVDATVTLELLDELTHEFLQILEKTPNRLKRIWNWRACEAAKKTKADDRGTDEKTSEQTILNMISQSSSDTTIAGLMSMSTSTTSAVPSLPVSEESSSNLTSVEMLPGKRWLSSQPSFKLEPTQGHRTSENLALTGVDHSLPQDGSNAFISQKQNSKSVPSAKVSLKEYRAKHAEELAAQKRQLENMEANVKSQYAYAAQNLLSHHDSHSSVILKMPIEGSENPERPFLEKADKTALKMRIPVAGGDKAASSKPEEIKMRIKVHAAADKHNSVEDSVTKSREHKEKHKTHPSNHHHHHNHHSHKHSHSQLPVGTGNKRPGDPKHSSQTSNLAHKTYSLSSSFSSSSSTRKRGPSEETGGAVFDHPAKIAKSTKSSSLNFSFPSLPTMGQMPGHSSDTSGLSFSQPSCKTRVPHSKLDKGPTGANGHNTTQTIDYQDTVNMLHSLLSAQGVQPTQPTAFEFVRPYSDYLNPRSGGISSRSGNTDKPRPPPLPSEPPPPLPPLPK

On to FLAG-tagged CDK9 (FT-CDK9), for which, in the data set on Cyclin T1, the “in vitro kinase assay (autophosphorylation of the preparation)” value is “The FT-CDK9 immunopurification autophosphorylates specific components circa 45 kD and 87 kD, consistent with the molecular weights expected for Cyclin T1 and a FT-CDK9”. Moreover, the “in vitro kinase assay (phosphorylation of the substrate)” value in data set [1] is “the immunopurified f:CDK9 actively phosphorylated a circa 160 kDa polypeptide, most likely f:DSIF p160, within an immunopurified f:DSIF p160 preparation”; in data set [2], “The f:CDK9 immunopurified preparation was able to phosphorylate both rGST-CTD and RPB1 within Pol II”; in data set [3], “The f:CDK9 immunopurified preparation was able to phosphorylate both rGST-CTD and RPB1 within Pol II”.
“FLAG-tagged CDK9M (FT-CDK9M), CDK9 with the D167N mutation”: the “in vitro kinase assay (autophosphorylation of the preparation)” value with Cyclin T1 is on record as “The FT-CDK9M immunopurification was significantly weaker in its ability to autophosphorylate the 87 kD band”. Moreover, the “in vitro kinase assay (phosphorylation of the substrate)” value in data set [2] and in data set [3] was “significantly impaired in its ability to phosphorylate either rGST-CTD or RPB1 within Pol II” throughout.
